This is an account of results in article PMC4973239, “Crystal structure of the human Tip41 orthologue, TIPRL, reveals a novel fold and a binding site for the PP2Ac C-terminus” (Scientific Reports, 2016).

Broadly, the stoichiometry N is the number of molecules, sites or subunits per partner or assembly.

Experiment [1] addresses TIPRLΔN, His tag removed with TEV protease (human) (UniProt O75663). In words: SEC; size exclusion profiles under different conditions (Fig. S1B), high concentration; HiLoad 26/60 Superdex 75 pg, Tris 20 mM pH 7.5, 100 mM NaCl, 10 mM β-mercaptoethanol. (In general: Size exclusion chromatography separates by hydrodynamic size, large species first.)
Experiment [2] deals with T1, TIPRLΔN, His tag removed with TEV protease (human, UniProt O75663-1 16-272).
T1 construct: plasmid-derived residues left at the N-terminus after TEV cleavage; they form strand β1; TIPRL (TIP41, TOR signaling pathway regulator-like), human, NP_690866.1, with a 15-residue N-terminal deletion; TEV cleavage was usually incomplete; The last 16 C-terminal residues are disordered in the crystal; also called TIPRL (crystal structure); source: E. coli BL21(DE3), purified (Ni Sepharose, TEV …)
T1 sequence: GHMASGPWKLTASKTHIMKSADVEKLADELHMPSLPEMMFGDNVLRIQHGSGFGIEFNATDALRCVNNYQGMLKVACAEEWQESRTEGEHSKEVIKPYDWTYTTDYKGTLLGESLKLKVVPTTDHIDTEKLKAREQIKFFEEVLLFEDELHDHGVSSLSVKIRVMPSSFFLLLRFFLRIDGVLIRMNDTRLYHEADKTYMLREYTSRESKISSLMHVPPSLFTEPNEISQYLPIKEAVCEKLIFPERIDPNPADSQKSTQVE
In words: crystal structure; TIPRLΔN after TEV cleavage, 70–100 mg/ml; hanging drop at 18 °C, phosphate or SPG buffer pH 5.5–6.7, 2 to 3 M NaCl; two molecules in the asymmetric unit; 2.15 Å. To be noted: both partners purified.

In the case of “TIPRLΔN, His tag removed with TEV protease (from UniProt O75663-1 16-272) (domain or fragment)”, the stoichiometry N in experiment [1] worked out at 2.

B1: peptide generated after cleavage with the TEV protease (MGHHHHHHENLYFQ) (peptide)
peptide: MGHHHHHHENLYFQ
notes: hexa-histidine tag and TEV cleavage site of the vector pET-TEV, as released by TEV protease; only LYFQ (site on chain A) or ENLYFQ (site on chain B) is seen in the density; also called TEV site peptide; TEV-derived peptide; source: E. coli BL21(DE3)
As for B1, in experiment [2], the binding result is “binds”.
